What is called Kd is the equilibrium constant for the complex coming apart. Low readings indicate higher affinity, high ones lower affinity.

These results are taken from patent publication US20120039879A1.

The target in assay [1] is ROBO1 (UniProt Q9Y6N7). Put plainly: ITC, compared with the scFv alone. Background: Isothermal titration calorimetry measures the heat released or taken up as one component is titrated into another.
Assay [2] deals with ROBO1 (UniProt Q9Y6N7). Put plainly: ITC, ROBO1 titrated into B5209B mouse-scFv-mcSA414 (3.7 µM), 25° C., PBS.
For assay [3], the target named is ROBO1 (UniProt Q9Y6N7). Put plainly: ITC, ROBO1 titrated into B5209B mouse-scFv-mcSA414 (3.7 µM), 25° C., PBS; ITC, 25 C, PBS, ROBO1 titrated into the scFv-mcSA414 tetramer (3.7 uM).
Assay [4] has as its target ROBO1 (UniProt Q9Y6N7). Put plainly: ITC, one-site model (OneSites): ROBO1 injected into B5209B mouse-scFv-mcSA414 (3.7 uM) at 25 C in PBS.

B1: B5209B mouse-scFv-mcSA414 (protein)
chain: MAEVQLVESGGGVVQPGGSLKLSCAASGFTFSTYDMSWVRQTPDKRLELVATINSNGGSTYYPDSVKGRFTSSRDNAKNILYLQMSSLKSEDTAMYYCAREALLRPPYYALDYWGQGTSVTVSSAGGGGSGGGGSGGGGSDILDIQMTQSPASLSASVGETVTITCGASENIYGALTWYQRKQGKSPQLLIYGAINLADDKSSRFSGSGSGRQYSLKISSLHPDDVATYYCQNVLSTPFTFGSGTKLEIKAAGSSGSGSAAEAGITGTWSNQLGSTFIVTAGADGALTGTYESAVGNAESRYVLTGRYDSAPATDGSGTALGWTVAWKNNSKNAHSATTWSGQYVGGADAKINTQWLLTSGTTQANAWKSTLVGHDTFTKVKPSAASGARHHHHHH
Take B1: in the assay with ROBO1 [1], the reduction in affinity compared with scFV was 10 fold and the ΔS value relative to scFV (ratio to scFV) worked out at 0.025. Besides, in the assay with ROBO1 [2], the binding ratio (molecules of ROBO1 per tetramer) was found to be 2, the enthalpy change (ΔH) is -3.85 kcal/mol and the entropy change (ΔS) is -22 J/mol·K. Also, the dissociation constant Kd in the assay with ROBO1 [3] stood at 33 nM. Also, in the assay with ROBO1 [4], the N (fitted stoichiometry, ROBO1 per scFv-mcSA414 in the cell) turned out to be 0.334.
